Results taken from patent US20200024330A1.

Columns and labels:
Assay in all cases: cell-based or functional assay
[1] = molecular target: HIV-1 Env of isolate MGRM-D-029 (HIV-1)
[2] = molecular target: HIV-1 Env of isolate 92RW020 (HIV-1)
[3] = molecular target: HIV-1 Env of isolate 92RW021 (HIV-1)
[4] = molecular target: HIV-1 Env of isolate MGRM-C-028 (subtype C), on pseudovirus (HIV-1)
[5] = molecular target: HIV-1 Env of isolate PVO.4 (subtype B) (HIV-1)
[6] = molecular target: HIV-1 Env of isolate SC422661.8 (subtype B) (HIV-1)
[7] = molecular target: HIV-1 envelope glycoprotein (Env) of isolate 93TH305, on pseudovirus (HIV-1)
[8] = molecular target: HIV-1 envelope glycoprotein (Env) of isolate APV_6, on pseudovirus (HIV-1)
[9] = molecular target: HIV-1 envelope glycoprotein (Env) of isolate MGRM-Chronic-B-010, on pseudovirus (HIV-1)
[10] = molecular target: HIV-1 envelope glycoprotein (Env) of isolate MGRM-Chronic-B-017, on pseudovirus (HIV-1)
[11] = molecular target: HIV-1 JR-CSF Env, wild type (pseudovirus) (HIV-1 JR-CSF) (UniProt P20871)
[12] = molecular target: HIV-1 92BR020 envelope glycoprotein (Env) (HIV-1)
[13] = molecular target: HIV-1 JR-CSF Env D417A (HIV-1 (isolate JR-CSF)) (UniProt P20871)
[14] = molecular target: HIV-1 JR-CSF Env F210A (HIV-1 JR-CSF) (UniProt P20871)
[15] = molecular target: HIV-1 JR-CSF Env G324A (HIV-1 isolate JR-CSF) (UniProt P20871)
[16] = molecular target: HIV-1 JR-CSF Env I307A (HIV-1 JR-CSF) (UniProt P20871)
[17] = molecular target: HIV-1 JR-CSF Env I326A (HIV-1 isolate JR-CSF) (UniProt P20871)
[18] = molecular target: HIV-1 JR-CSF Env I414A (HIV-1 (isolate JR-CSF)) (UniProt P20871)
[19] = molecular target: HIV-1 JR-CSF Env I415A (HIV-1 (isolate JR-CSF)) (UniProt P20871)
[20] = molecular target: HIV-1 JR-CSF Env I420A (HIV-1 (isolate JR-CSF)) (UniProt P20871)
[21] = molecular target: HIV-1 JR-CSF Env I424A (HIV-1 (isolate JR-CSF)) (UniProt P20871)
[22] = molecular target: HIV-1 JR-CSF Env K343A (HIV-1 isolate JR-CSF) (UniProt P20871)
[23] = molecular target: HIV-1 JR-CSF Env K421A (HIV-1 (isolate JR-CSF)) (UniProt P20871)
[24] = molecular target: HIV-1 JR-CSF Env L416A (HIV-1 (isolate JR-CSF)) (UniProt P20871)
[25] = molecular target: HIV-1 JR-CSF Env N241A (HIV-1 JR-CSF) (UniProt P20871)
[26] = molecular target: HIV-1 JR-CSF Env N392Q (HIV-1 (isolate JR-CSF)) (UniProt P20871)
[27] = molecular target: HIV-1 JR-CSF Env P313A (HIV-1 JR-CSF) (UniProt P20871)
[28] = molecular target: HIV-1 JR-CSF Env Q422A (HIV-1 (isolate JR-CSF)) (UniProt P20871)
[29] = molecular target: HIV-1 JR-CSF Env R350A (HIV-1 isolate JR-CSF) (UniProt P20871)
[30] = molecular target: HIV-1 JR-CSF Env S199A (HIV-1 JR-CSF) (UniProt P20871)
[31] = molecular target: HIV-1 JR-CSF Env S306A (HIV-1 JR-CSF) (UniProt P20871)
[32] = molecular target: HIV-1 JR-CSF Env S334A (HIV-1 isolate JR-CSF) (UniProt P20871)
[33] = molecular target: HIV-1 JR-CSF Env T319A (HIV-1 isolate JR-CSF) (UniProt P20871)
[34] = molecular target: HIV-1 JR-CSF Env T341A (HIV-1 isolate JR-CSF) (UniProt P20871)
[35] = molecular target: HIV-1 JR-CSF Env T413A (HIV-1 (isolate JR-CSF)) (UniProt P20871)
[36] = molecular target: HIV-1 JRFL envelope glycoprotein (Env) (HIV-1)
[37] = molecular target: HIV-1 APV13 Env (pseudovirus) (HIV-1)
[38] = molecular target: HIV-1 MGRM-D-001 Env (pseudovirus) (HIV-1)
[39] = molecular target: aMLV envelope protein on pseudotyped virus (negative control) (aMLV)
[40] = molecular target: HIV-1 IAVI-C3 envelope glycoprotein (Env) on pseudovirus (HIV-1)

VRC01 (antibody) gave an IC50, pseudovirus neutralization [1] of 3.22 µg/mL.

PGV04 (antibody) showed an IC50 [2] of 0.055 µg/mL, an IC50 [3] of 0.038 µg/mL and an IC50 (µg/mL), pseudovirus neutralization [4] of 0.149 µg/mL. For the same substance, the IC50 (µg/mL), pseudovirus neutralization [1] was 1.56 µg/mL, the IC50 (µg/mL), pseudovirus neutralization [5] was 0.454 µg/mL and the IC50 (µg/mL), pseudovirus neutralization [6] was 0.11 µg/mL. The IC50, pseudovirus neutralization [7] was 0.255 µg/mL, the IC50, pseudovirus neutralization [8] was 24.2 µg/mL and the IC50, pseudovirus neutralization [9] was 0.744 µg/mL. It also gave an IC50, pseudovirus neutralization [10] of 0.129 µg/mL.

1496_C09 (PG9) (TCN-109) (antibody) was tested, and the IC50 [2] was 0.141 µg/mL, the IC50 [3] was 0.027 µg/mL and the IC50 (µg/mL), pseudovirus neutralization [4] was 0.067 µg/mL. For the same substance, the IC50 (µg/mL), pseudovirus neutralization [5] was 24.8 µg/mL, the IC50 (µg/mL), pseudovirus neutralization [6] was 1.48 µg/mL and the IC50 (ug/ml), neutralization [11] was 0.006 µg/mL. The IC50, pseudovirus neutralization [7] was 8.12 µg/mL, the IC50, pseudovirus neutralization [8] was 0.181 µg/mL and the IC50, pseudovirus neutralization [9] was 0.004 µg/mL. For the same substance, the IC50, pseudovirus neutralization [10] was 0.688 µg/mL.

Work on PGT-121 (antibody) yielded an IC50 neutralization [12] of 0.0177 µg/mL, a Fold IC50 increase relative to wild-type [13] of 0.7 fold and a Fold IC50 increase relative to wild-type [14] of 1.5 fold. The Fold IC50 increase relative to wild-type [15] was 16.6 fold, the Fold IC50 increase relative to wild-type [16] was 3.7 fold and the Fold IC50 increase relative to wild-type [17] was 0.7 fold. It also gave a Fold IC50 increase relative to wild-type [18] of 0.5 fold, a Fold IC50 increase relative to wild-type [19] of 0.6 fold and a Fold IC50 increase relative to wild-type [20] of 3.3 fold. It also gave a Fold IC50 increase relative to wild-type [21] of 0.9 fold, a Fold IC50 increase relative to wild-type [22] of 0.6 fold and a Fold IC50 increase relative to wild-type [23] of 1.3 fold. For the same substance, the Fold IC50 increase relative to wild-type [24] was 0.6 fold, the Fold IC50 increase relative to wild-type [25] was 0.5 fold and the Fold IC50 increase relative to wild-type [26] was 0.9 fold. For the same substance, the Fold IC50 increase relative to wild-type [27] was 0.5 fold, the Fold IC50 increase relative to wild-type [28] was 1.2 fold and the Fold IC50 increase relative to wild-type [29] was 0.8 fold. For the same substance, the Fold IC50 increase relative to wild-type [30] was 0.8 fold, the Fold IC50 increase relative to wild-type [31] was 0.7 fold and the Fold IC50 increase relative to wild-type [32] was > 50 fold. The Fold IC50 increase relative to wild-type [33] was 1.3 fold, the Fold IC50 increase relative to wild-type [34] was 0.5 fold and the Fold IC50 increase relative to wild-type [35] was 0.5 fold. It also gave an IC50 neutralization [36] of 0.0276 µg/mL.

With 4838_L06 (PGT-121) (antibody) the neutralization IC80 [37] was 1.31 µg/mL, the neutralization IC90 [37] was 2.8 µg/mL and the neutralization IC95 [37] was 5.15 µg/mL. For the same substance, the neutralization IC80 [38] was 3.29 µg/mL, the neutralization IC90 [38] was 6.26 µg/mL and the neutralization IC95 [38] was 9.39 µg/mL.

Work on PGT-122 (antibody) yielded an IC50 neutralization [12] of 0.0337 µg/mL, a Fold IC50 increase relative to wild-type [13] of 0.5 fold and a Fold IC50 increase relative to wild-type [14] of 2.6 fold. For the same substance, the Fold IC50 increase relative to wild-type [15] was 12.5 fold, the Fold IC50 increase relative to wild-type [16] was 3.8 fold and the Fold IC50 increase relative to wild-type [17] was 0.6 fold. For the same substance, the Fold IC50 increase relative to wild-type [18] was 0.5 fold, the Fold IC50 increase relative to wild-type [19] was 0.4 fold and the Fold IC50 increase relative to wild-type [20] was 3.5 fold. It also gave a Fold IC50 increase relative to wild-type [21] of 0.8 fold, a Fold IC50 increase relative to wild-type [22] of 0.3 fold and a Fold IC50 increase relative to wild-type [23] of 1.2 fold. It also gave a Fold IC50 increase relative to wild-type [24] of 1 fold, a Fold IC50 increase relative to wild-type [25] of 1.4 fold and a Fold IC50 increase relative to wild-type [26] of 1 fold. It also gave a Fold IC50 increase relative to wild-type [27] of 0.4 fold, a Fold IC50 increase relative to wild-type [28] of 1.1 fold and a Fold IC50 increase relative to wild-type [29] of 0.6 fold. The Fold IC50 increase relative to wild-type [30] was 1 fold, the Fold IC50 increase relative to wild-type [31] was 0.5 fold and the Fold IC50 increase relative to wild-type [32] was > 50 fold. It also gave a Fold IC50 increase relative to wild-type [33] of 0.5 fold, a Fold IC50 increase relative to wild-type [34] of 0.3 fold and a Fold IC50 increase relative to wild-type [35] of 0.8 fold. For the same substance, the IC50 neutralization [36] was 0.0471 µg/mL.

1495_C14 (PGC14) (antibody) was tested, and the IC50, pseudovirus neutralization, 1 hour Virus/Ab Incubation [39] was > 50 µg/mL and the IC50, pseudovirus neutralization, 18 hour Virus/Ab Incubation [39] was > 50 µg/mL.

1443_C16 (PG16) (TCN-116) (antibody) was tested, and the IC90 (pseudovirus neutralization) [40] was > 50 µg/mL, the IC50 (ug/ml), neutralization [11] was 0.001 µg/mL and the IC50, pseudovirus neutralization, 1 hour Virus/Ab Incubation [39] was > 50 µg/mL. For the same substance, the IC50, pseudovirus neutralization, 18 hour Virus/Ab Incubation [39] was > 50 µg/mL.

In the case of 5141_B17 (PGT-126) (antibody), the IC50 [37] is reported as 0.012 µg/mL, the IC80 [37] is reported as 0.0411 µg/mL and the IC90 [37] is reported as 0.084 µg/mL. For the same substance, the IC95 [37] was 0.162 µg/mL, the IC50 [38] was 0.0639 µg/mL and the IC80 [38] was 0.333 µg/mL. For the same substance, the IC90 [38] was 0.832 µg/mL and the IC95 [38] was 1.8 µg/mL.

For 2G12 (antibody), the IC90 (pseudovirus neutralization) [40] was > 50 µg/mL.
